Measurements from the supplement of paper PMC7877785.
± gives the uncertainty stated by the source.

Assay: self-splicing fitness, log relative to wild type (ln ratio); higher = more splicing; Tetrahymena group I intron in knt gene, E. coli kanamycin selection, DiMSum; sequences stand for … in CUCUCU…GGAGGGAAAAGUUAUCAGGCAUGCACCUGGUAGCUAGUCUUUAAACCAAUAGAUUGCAUCGGUUUAAAAGGCAAGACCGUCAAAUUGCGGGAAAGGGGUCAACAGCCGUUCAGUACCAAGUCUCAGGGGAAACUUUGAGAUGGCCUUGCAAAGGGUAUGGUAAUAAGCUGACGGACAUGGUCCUAACCACGCAGCCAAGUCCUAAGUCAACAGAUCUUCUGUUGAUAUGGAUGCAGUUCACAGACUAAAUGUCGGUCGGGGAAGAUGUAUUCUUCUCAUAAGAUAUAGUCGGACCUCUCCUUAAUGGGAGCUAGCGGAUGAAGUGAUGCAACACUGGAGCCGCUGGGAACUAAUUUGUAUGCGAAAGUAUAUUGAUUAGUUUUGGAGUACUCGUGGUCG
How it was run: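 Library with all eight P1ex-region intron nucleotides randomised, intron inside the knt kanamycin-resistance gene on pET-22b(+), in E. coli BL21(DE3). Cells grew overnight at 37°C or 30°C on LB agar with or without 25 μg/mL kanamycin (plus 100 μg/mL carbenicillin, 50 μM IPTG, 0.2% rhamnose), in six replicate transformations. Pooled colonies were amplicon-sequenced on Illumina HiSeq 2500. DiMSum fitness is the error-weighted combination of wild-type-normalised replicate fold changes, kanamycin versus none.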

Sequence | self-splicing fitness (ln) (30 °C) | self-splicing fitness (ln) (37 °C)
ACCUAGCAAUAUUACGUCGG | -1.07 ± 0.078 | -1.11 ± 0.11
ACCUAGCAAUAUUACGUGCC | -1.63 ± 0.12 | -0.237 ± 0.14
ACCUAGCAAUAUUACGUUUA | -3.18 ± 0.17 | -2.68 ± 0.17
ACCUAGCAAUAUUACGUUUU | -2.61 ± 0.091 | -1.44 ± 0.1
ACGAAGCAAUAUUACGAAAC | -2.87 ± 0.23 | 
ACGAAGCAAUAUUACGAAGG | -2.21 ± 0.17 | -1.4 ± 0.15
ACGAAGCAAUAUUACGACGU | -2.78 ± 0.17 | -1.88 ± 0.19
ACGAAGCAAUAUUACGCAAA | -2.64 ± 0.15 | -0.916 ± 0.13
ACGAAGCAAUAUUACGCGCU | -1.01 ± 0.09 | 0.163 ± 0.12
ACGAAGCAAUAUUACGCUAC | -2.09 ± 0.14 | -2.81 ± 0.15
ACGAAGCAAUAUUACGCUAU | -0.928 ± 0.06 | -1.48 ± 0.078
ACGAAGCAAUAUUACGGACG | -1.55 ± 0.13 | -0.00573 ± 0.18
ACGAAGCAAUAUUACGGAGU | -3.82 ± 0.24 | -3.07 ± 0.29
ACGAAGCAAUAUUACGGCCU | 0.00118 ± 0.097 | 0.0498 ± 0.13
ACGAAGCAAUAUUACGGGCU | -0.943 ± 0.1 | -1.67 ± 0.16
ACGAAGCAAUAUUACGGGUU | -3.63 ± 0.15 | -2.58 ± 0.14
ACGAAGCAAUAUUACGGUCU | -0.57 ± 0.073 | -0.225 ± 0.097
ACGAAGCAAUAUUACGGUGU | -2.71 ± 0.11 | -1.59 ± 0.095
ACGAAGCAAUAUUACGGUUA | -1.58 ± 0.095 | -0.445 ± 0.079
ACGAAGCAAUAUUACGGUUC | -4.09 ± 0.23 | -0.86 ± 0.15
ACGAAGCAAUAUUACGUAGC | -3.19 ± 0.17 | -1.16 ± 0.14
ACGAAGCAAUAUUACGUAGG | -2.12 ± 0.099 | -1.43 ± 0.15
ACGAAGCAAUAUUACGUAUG | -1.94 ± 0.14 | -2.7 ± 0.23
ACGAAGCAAUAUUACGUCCC | -1.28 ± 0.13 | -1.07 ± 0.16

Sequence | self-splicing fitness (ln) (30 °C) | self-splicing fitness (ln) (37 °C)
ACGAAGCAAUAUUACGUCUA | -1.66 ± 0.071 | -1.03 ± 0.061
ACGAAGCAAUAUUACGUGCA | -0.772 ± 0.066 | 0.325 ± 0.084
ACGAAGCAAUAUUACGUGGG | -2.76 ± 0.16 | -2.84 ± 0.17
ACGAAGCAAUAUUACGUUAG | -3.22 ± 0.12 | -2.44 ± 0.16
ACGAAGCAAUAUUACGUUUC | -2.31 ± 0.11 | -2.18 ± 0.17
ACGCAGCAAUAUUACGAAAC | -3.07 ± 0.4 | -1.58 ± 0.21
ACGCAGCAAUAUUACGAAAG | -3.33 ± 0.21 | -2 ± 0.19
ACGCAGCAAUAUUACGAACA | -1.75 ± 0.081 | -1.36 ± 0.086
ACGCAGCAAUAUUACGACCA | -1.49 ± 0.12 | -0.691 ± 0.15
ACGCAGCAAUAUUACGAGAA | -1.64 ± 0.26 | -2.83 ± 0.25
ACGCAGCAAUAUUACGAGCC | -2.97 ± 0.2 | -1.84 ± 0.17
ACGCAGCAAUAUUACGAGGG | -3.71 ± 0.18 | -2.77 ± 0.21
ACGCAGCAAUAUUACGAUUG | -2.96 ± 0.18 | -1.82 ± 0.17
ACGCAGCAAUAUUACGCCCG | -0.491 ± 0.13 | -0.64 ± 0.19
ACGCAGCAAUAUUACGCCUC | -2.83 ± 0.17 | -1.22 ± 0.19
ACGCAGCAAUAUUACGCGAA | -2.4 ± 0.15 | -1.2 ± 0.13
ACGCAGCAAUAUUACGCUAC | -1.93 ± 0.25 | -2.59 ± 0.45
ACGCAGCAAUAUUACGGGCU | -2.46 ± 0.11 | -1.36 ± 0.12
ACGCAGCAAUAUUACGGGUG | -1.56 ± 0.068 | -0.519 ± 0.076
ACGCAGCAAUAUUACGGUAA | -2.69 ± 0.12 | -1.02 ± 0.082
ACGCAGCAAUAUUACGUACU | -1.12 ± 0.077 | -0.434 ± 0.088
ACGCAGCAAUAUUACGUAGC | -3.47 ± 0.12 | -1.89 ± 0.14
ACGCAGCAAUAUUACGUAGU | -2.76 ± 0.087 | -1.92 ± 0.1
ACGCAGCAAUAUUACGUAUU | -3.49 ± 0.32 | -2 ± 0.16

Sequence | self-splicing fitness (ln) (30 °C) | self-splicing fitness (ln) (37 °C)
ACGCAGCAAUAUUACGUCUA | -1.55 ± 0.096 | -1.22 ± 0.08
ACGGAGCAAUAUUACGACUA | -2.73 ± 0.35 | -2.09 ± 0.24
ACGGAGCAAUAUUACGACUG | -1.95 ± 0.14 | -0.681 ± 0.13
ACGGAGCAAUAUUACGAGGC | -2.43 ± 0.19 | -2.07 ± 0.31
ACGGAGCAAUAUUACGAUAC | -2.35 ± 0.18 | -1.98 ± 0.22
ACGGAGCAAUAUUACGCGAA | -3.05 ± 0.32 | -1.57 ± 0.23
ACGGAGCAAUAUUACGCUAU | -3.81 ± 0.23 | -2.1 ± 0.19
ACGGAGCAAUAUUACGCUGA | -1.48 ± 0.17 | -1.9 ± 0.21
ACGGAGCAAUAUUACGGAAA |  | -2.15 ± 0.24
ACGGAGCAAUAUUACGGCAA | -2.98 ± 0.3 | -2.61 ± 0.27
ACGGAGCAAUAUUACGGCAC | -3.21 ± 0.28 | -2.43 ± 0.23
ACGGAGCAAUAUUACGGCAG |  | -1.07 ± 0.44
ACGGAGCAAUAUUACGGCGG | -1.4 ± 0.12 | -0.413 ± 0.13
ACGGAGCAAUAUUACGGGGA | -1.07 ± 0.24 | -3.6 ± 0.42
ACGGAGCAAUAUUACGUACG | -2.38 ± 0.45 | 
ACGGAGCAAUAUUACGUCAU | -4.36 ± 0.37 | -3.01 ± 0.37
ACGGAGCAAUAUUACGUGUG | -3.92 ± 0.19 | -2.56 ± 0.14
ACGGAGCAAUAUUACGUUAA | -2.65 ± 0.23 | -3.13 ± 0.47
ACGUAGCAAUAUUACGAACU | -0.677 ± 0.059 | -0.266 ± 0.082
ACGUAGCAAUAUUACGACCA | -0.97 ± 0.086 | -0.34 ± 0.1
ACGUAGCAAUAUUACGAGGU | -3.36 ± 0.21 | -2.02 ± 0.2
ACGUAGCAAUAUUACGAUCA | -0.757 ± 0.1 | -0.359 ± 0.086
ACGUAGCAAUAUUACGAUCG | -1.15 ± 0.1 | -0.0917 ± 0.12
ACGUAGCAAUAUUACGAUUU | 0.256 ± 0.059 | -0.149 ± 0.073

Sequence | self-splicing fitness (ln) (30 °C) | self-splicing fitness (ln) (37 °C)
ACGUAGCAAUAUUACGCAAG | -3.16 ± 0.24 | -3.03 ± 0.22
ACGUAGCAAUAUUACGCAGC | -3.26 ± 0.26 | -2.71 ± 0.25
ACGUAGCAAUAUUACGCAGG | -3.67 ± 0.24 | 0.325 ± 0.1
ACGUAGCAAUAUUACGGCAG | -4.15 ± 0.28 | -2.61 ± 0.33
ACGUAGCAAUAUUACGGCAU | -1.31 ± 0.1 | -0.11 ± 0.099
ACGUAGCAAUAUUACGGCGG | -1.65 ± 0.1 | -0.812 ± 0.11
ACGUAGCAAUAUUACGUACC | -1.4 ± 0.13 | -0.541 ± 0.19
ACGUAGCAAUAUUACGUACG | -2.3 ± 0.19 | -1.35 ± 0.23
ACGUAGCAAUAUUACGUCAA | -3.44 ± 0.27 | -2.34 ± 0.19
ACGUAGCAAUAUUACGUGAC | -2.84 ± 0.14 | -2.94 ± 0.22
ACGUAGCAAUAUUACGUGCC | -1.54 ± 0.22 | -0.492 ± 0.24
ACUAAGCAAUAUUACGAAUA | -2.99 ± 0.23 | -2.55 ± 0.25
ACUAAGCAAUAUUACGAGUG | -1.42 ± 0.08 | -0.758 ± 0.11
ACUAAGCAAUAUUACGAUGG | -0.371 ± 0.1 | -0.661 ± 0.16
ACUAAGCAAUAUUACGCAAA | -2.51 ± 0.24 | -1.77 ± 0.24
ACUAAGCAAUAUUACGCAAC | -3.28 ± 0.26 | -1.17 ± 0.27
ACUAAGCAAUAUUACGCAAG | -1.79 ± 0.074 | -1.49 ± 0.096
ACUAAGCAAUAUUACGCACA | -1.23 ± 0.11 | 0.0989 ± 0.1
ACUAAGCAAUAUUACGCGCG | -0.732 ± 0.096 | -0.0128 ± 0.13
ACUAAGCAAUAUUACGCGGG | -2.3 ± 0.18 | -1.36 ± 0.15
ACUAAGCAAUAUUACGCUAG | -2.68 ± 0.14 | -1.82 ± 0.17
ACUAAGCAAUAUUACGCUGU | -2.77 ± 0.17 | -2.58 ± 0.35
ACUAAGCAAUAUUACGGAAC | -3.33 ± 0.29 | -2.77 ± 0.32
ACUAAGCAAUAUUACGGACC | -1.4 ± 0.15 | -0.596 ± 0.19
